Measurements taken from article PMC9352680, “A comprehensive thermodynamic model for RNA binding by the Saccharomyces cerevisiae Pumilio protein PUF4”.

T1: PUF4 RNA-binding domain (Saccharomyces cerevisiae, UniProt P25339 537-888)
T1 sequence: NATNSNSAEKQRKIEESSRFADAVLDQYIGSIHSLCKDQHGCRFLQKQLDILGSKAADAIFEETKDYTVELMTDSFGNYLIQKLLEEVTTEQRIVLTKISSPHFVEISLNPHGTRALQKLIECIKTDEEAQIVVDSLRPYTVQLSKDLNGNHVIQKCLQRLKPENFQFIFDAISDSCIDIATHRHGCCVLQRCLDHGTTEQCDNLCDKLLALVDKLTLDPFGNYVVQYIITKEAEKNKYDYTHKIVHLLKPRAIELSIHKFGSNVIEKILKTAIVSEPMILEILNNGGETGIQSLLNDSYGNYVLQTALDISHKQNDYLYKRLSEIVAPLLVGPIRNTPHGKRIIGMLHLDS


Target: T1, PUF4 RNA-binding domain
Assay: Mg; RNA-MaP; 20 mM Na-HEPES pH 7.4, 30 mM KOAc, 0.75 mM MgCl2, 0.1% Tween-20, 5% glycerol, 0.1 mg/mL BSA, 2 mM DTT; 25 C; 0.0125-409.6 nM protein
Settings: tags: N-His6-TEV cleaved; C-SNAP kept, Cy3B-labelled; label: tethered on chip by stalled RNA polymerase

Binder | Kd [nM]
Ic_S2_P4E.1_K4.1_C4.1_H4.1_A4.1_[T5G]_[A6C]_[T7G]_F4.1_[T8G]_[A9T]_T4.1 (ssRNA) RNA: UUUGAUUAAUAUGAUAUCGUUCUUUCUUGUAGCGGUUUCUUUCUCGAUAUCAUAUUAAUCUUU | 808
Ic_S2_P4E.1_K4.1_C4.1_H4.1_A4.1_[T5G]_[A6C]_F4.1_[T8A]_T4.1 (ssRNA) RNA: UUUGAUUAAUAUGAUAUCGUUCUUUCUUGUAGCUAAUUCUUUCUCGAUAUCAUAUUAAUCUUU | 111
Ic_S2_P4E.1_K4.1_C4.1_H4.1_A4.1_[T5G]_[A6C]_F4.1_[T8C]_[A9G]_T4.1 (ssRNA) RNA: UUUGAUUAAUAUGAUAUCGUUCUUUCUUGUAGCUCGUUCUUUCUCGAUAUCAUAUUAAUCUUU | 988
Ic_S2_P4E.1_K4.1_C4.1_H4.1_A4.1_[T5G]_[A6C]_F4.1_[A9T]_T4.1 (ssRNA) RNA: UUUGAUUAAUAUGAUAUCGUUCUUUCUUGUAGCUUUUUCUUUCUCGAUAUCAUAUUAAUCUUU | 30.4
Ic_S2_P4E.1_K4.1_C4.1_H4.1_A4.1_[T5G]_[A6C]_[T7C]_F4.1_[T8A]_[A9C]_T4.1 (ssRNA) RNA: UUUGAUUAAUAUGAUAUCGUUCUUUCUUGUAGCCACUUCUUUCUCGAUAUCAUAUUAAUCUUU | 1280
Ic_S2_P4E.1_K4.1_C4.1_H4.1_A4.1_[T5G]_[A6T]_[T7C]_F4.1_[T8G]_[A9C]_T4.1 (ssRNA) RNA: UUUGAUUAAUAUGAUAUCGUUCUUUCUUGUAGUCGCUUCUUUCUCGAUAUCAUAUUAAUCUUU | 598
Ic_S2_P4E.1_K4.1_C4.1_H4.1_A4.1_[T5G]_[A6C]_[T7A]_F4.1_[A9T]_T4.1 (ssRNA) RNA: UUUGAUUAAUAUGAUAUCGUUCUUUCUUGUAGCAUUUUCUUUCUCGAUAUCAUAUUAAUCUUU | 9.32
Ic_S2_P4E.1_K4.1_C4.1_H4.1_A4.1_[T5G]_[A6C]_[T7C]_F4.1_[T8C]_[A9T]_T4.1 (ssRNA) RNA: UUUGAUUAAUAUGAUAUCGUUCUUUCUUGUAGCCCUUUCUUUCUCGAUAUCAUAUUAAUCUUU | 614
Ic_S2_P4E.1_K4.1_C4.1_H4.1_A4.1_[T5G]_[A6C]_[T7G]_F4.1_[T8C]_[A9G]_T4.1 (ssRNA) RNA: UUUGAUUAAUAUGAUAUCGUUCUUUCUUGUAGCGCGUUCUUUCUCGAUAUCAUAUUAAUCUUU | > 2300
Ic_S2_P4E.1_K4.1_C4.1_H4.1_A4.1_[T5G]_[A6C]_[T7C]_F4.1_[T8A]_[A9G]_T4.1 (ssRNA) RNA: UUUGAUUAAUAUGAUAUCGUUCUUUCUUGUAGCCAGUUCUUUCUCGAUAUCAUAUUAAUCUUU | > 2300
Ic_S2_P4E.1_K4.1_C4.1_H4.1_A4.1_[T5G]_[A6C]_[T7G]_F4.1_[T8C]_[A9C]_T4.1 (ssRNA) RNA: UUUGAUUAAUAUGAUAUCGUUCUUUCUUGUAGCGCCUUCUUUCUCGAUAUCAUAUUAAUCUUU | 750
Ic_S2_P4E.1_K4.1_C4.1_H4.1_A4.1_[T5G]_[A6C]_F4.1_[A9G]_T4.1 (ssRNA) RNA: UUUGAUUAAUAUGAUAUCGUUCUUUCUUGUAGCUUGUUCUUUCUCGAUAUCAUAUUAAUCUUU | 208
Ic_S2_P4E.1_K4.1_C4.1_H4.1_A4.1_[T5G]_[A6T]_[T7G]_F4.1_[T8C]_[A9T]_T4.1 (ssRNA) RNA: UUUGAUUAAUAUGAUAUCGUUCUUUCUUGUAGUGCUUUCUUUCUCGAUAUCAUAUUAAUCUUU | 478
Ic_S2_P4E.1_K4.1_C4.1_H4.1_A4.1_[T5G]_[A6T]_[T7C]_F4.1_[T8C]_[A9T]_T4.1 (ssRNA) RNA: UUUGAUUAAUAUGAUAUCGUUCUUUCUUGUAGUCCUUUCUUUCUCGAUAUCAUAUUAAUCUUU | 121
Ic_S2_P4E.1_K4.1_C4.1_H4.1_A4.1_[T5G]_[A6C]_[T7C]_F4.1_[T8G]_[A9C]_T4.1 (ssRNA) RNA: UUUGAUUAAUAUGAUAUCGUUCUUUCUUGUAGCCGCUUCUUUCUCGAUAUCAUAUUAAUCUUU | > 2300
Ic_S2_P4E.1_K4.1_C4.1_H4.1_A4.1_[T5G]_[A6C]_[T7G]_F4.1_[A9C]_T4.1 (ssRNA) RNA: UUUGAUUAAUAUGAUAUCGUUCUUUCUUGUAGCGUCUUCUUUCUCGAUAUCAUAUUAAUCUUU | 782
Ic_S2_P4E.1_K4.1_C4.1_H4.1_A4.1_[T5G]_[A6C]_F4.1_[T8A]_[A9G]_T4.1 (ssRNA) RNA: UUUGAUUAAUAUGAUAUCGUUCUUUCUUGUAGCUAGUUCUUUCUCGAUAUCAUAUUAAUCUUU | 846
Ic_S2_P4E.1_K4.1_C4.1_H4.1_A4.1_[T5G]_[A6C]_[T7G]_F4.1_T4.1 (ssRNA) RNA: UUUGAUUAAUAUGAUAUCGUUCUUUCUUGUAGCGUAUUCUUUCUCGAUAUCAUAUUAAUCUUU | 9.8
Ic_S2_P4E.1_K4.1_C4.1_H4.1_A4.1_[T5G]_[A6C]_[T7C]_F4.1_[A9T]_T4.1 (ssRNA) RNA: UUUGAUUAAUAUGAUAUCGUUCUUUCUUGUAGCCUUUUCUUUCUCGAUAUCAUAUUAAUCUUU | 48
Ic_S2_P4E.1_K4.1_C4.1_H4.1_A4.1_[T5G]_[A6C]_F4.1_[T8C]_T4.1 (ssRNA) RNA: UUUGAUUAAUAUGAUAUCGUUCUUUCUUGUAGCUCAUUCUUUCUCGAUAUCAUAUUAAUCUUU | 266
Ic_S2_P4E.1_K4.1_C4.1_H4.1_A4.1_[T5G]_[A6C]_[T7A]_F4.1_[A9G]_T4.1 (ssRNA) RNA: UUUGAUUAAUAUGAUAUCGUUCUUUCUUGUAGCAUGUUCUUUCUCGAUAUCAUAUUAAUCUUU | 27.6
Ic_S2_P4E.1_K4.1_C4.1_H4.1_A4.1_[T5G]_[A6C]_[T7C]_F4.1_[T8C]_[A9C]_T4.1 (ssRNA) RNA: UUUGAUUAAUAUGAUAUCGUUCUUUCUUGUAGCCCCUUCUUUCUCGAUAUCAUAUUAAUCUUU | 685
Ic_S2_P4E.1_K4.1_C4.1_H4.1_A4.1_[T5G]_[A6T]_[T7C]_F4.1_[A9T]_T4.1 (ssRNA) RNA: UUUGAUUAAUAUGAUAUCGUUCUUUCUUGUAGUCUUUUCUUUCUCGAUAUCAUAUUAAUCUUU | 41.9

Binder | Kd [nM]
Ic_S2_P4E.1_K4.1_C4.1_H4.1_A4.1_[T5G]_[A6T]_[T7G]_F4.1_[T8C]_[A9G]_T4.1 (ssRNA) RNA: UUUGAUUAAUAUGAUAUCGUUCUUUCUUGUAGUGCGUUCUUUCUCGAUAUCAUAUUAAUCUUU | 651
Ic_S2_P4E.1_K4.1_C4.1_H4.1_A4.1_[T5G]_[A6C]_[T7C]_F4.1_[T8C]_[A9G]_T4.1 (ssRNA) RNA: UUUGAUUAAUAUGAUAUCGUUCUUUCUUGUAGCCCGUUCUUUCUCGAUAUCAUAUUAAUCUUU | 1680
Ic_S2_P4E.1_K4.1_C4.1_H4.1_A4.1_[T5G]_[A6C]_[T7C]_F4.1_[T8A]_[A9T]_T4.1 (ssRNA) RNA: UUUGAUUAAUAUGAUAUCGUUCUUUCUUGUAGCCAUUUCUUUCUCGAUAUCAUAUUAAUCUUU | 402
Ic_S2_P4E.1_K4.1_C4.1_H4.1_A4.1_[T5G]_[A6T]_[T7C]_F4.1_[A9C]_T4.1 (ssRNA) RNA: UUUGAUUAAUAUGAUAUCGUUCUUUCUUGUAGUCUCUUCUUUCUCGAUAUCAUAUUAAUCUUU | 149
Ic_S2_P4E.1_K4.1_C4.1_H4.1_A4.1_[T5G]_[A6C]_F4.1_[A9C]_T4.1 (ssRNA) RNA: UUUGAUUAAUAUGAUAUCGUUCUUUCUUGUAGCUUCUUCUUUCUCGAUAUCAUAUUAAUCUUU | 52.2
Ic_S2_P4E.1_K4.1_C4.1_H4.1_A4.1_[T5G]_[A6C]_F4.1_[T8G]_[A9G]_T4.1 (ssRNA) RNA: UUUGAUUAAUAUGAUAUCGUUCUUUCUUGUAGCUGGUUCUUUCUCGAUAUCAUAUUAAUCUUU | 709
Ic_S2_P4E.1_K4.1_C4.1_H4.1_A4.1_[T5G]_[A6T]_[T7C]_F4.1_[T8C]_[A9C]_T4.1 (ssRNA) RNA: UUUGAUUAAUAUGAUAUCGUUCUUUCUUGUAGUCCCUUCUUUCUCGAUAUCAUAUUAAUCUUU | 473
Ic_S2_P4E.1_K4.1_C4.1_H4.1_A4.1_[T5G]_[A6C]_[T7A]_F4.1_[T8A]_T4.1 (ssRNA) RNA: UUUGAUUAAUAUGAUAUCGUUCUUUCUUGUAGCAAAUUCUUUCUCGAUAUCAUAUUAAUCUUU | 360
Ic_S2_P4E.1_K4.1_C4.1_H4.1_A4.1_[T5G]_[A6T]_[T7C]_F4.1_[T8C]_T4.1 (ssRNA) RNA: UUUGAUUAAUAUGAUAUCGUUCUUUCUUGUAGUCCAUUCUUUCUCGAUAUCAUAUUAAUCUUU | 527
Ic_S2_P4E.1_K4.1_C4.1_H4.1_A4.1_[T5G]_[A6C]_[T7A]_F4.1_T4.1 (ssRNA) RNA: UUUGAUUAAUAUGAUAUCGUUCUUUCUUGUAGCAUAUUCUUUCUCGAUAUCAUAUUAAUCUUU | 1.41
Ic_S2_P4E.1_K4.1_C4.1_H4.1_A4.1_[T5G]_[A6C]_[T7A]_F4.1_[T8C]_T4.1 (ssRNA) RNA: UUUGAUUAAUAUGAUAUCGUUCUUUCUUGUAGCACAUUCUUUCUCGAUAUCAUAUUAAUCUUU | 828
Ic_S2_P4E.1_K4.1_C4.1_H4.1_A4.1_[T5G]_[A6C]_[T7C]_F4.1_T4.1 (ssRNA) RNA: UUUGAUUAAUAUGAUAUCGUUCUUUCUUGUAGCCUAUUCUUUCUCGAUAUCAUAUUAAUCUUU | 5.95
Ic_S2_P4E.1_K4.1_C4.1_H4.1_A4.1_[T5G]_[A6C]_[T7C]_F4.1_[A9G]_T4.1 (ssRNA) RNA: UUUGAUUAAUAUGAUAUCGUUCUUUCUUGUAGCCUGUUCUUUCUCGAUAUCAUAUUAAUCUUU | 300
Ic_S2_P4E.1_K4.1_C4.1_H4.1_A4.1_[T5G]_[A6T]_[T7C]_F4.1_[T8C]_[A9G]_T4.1 (ssRNA) RNA: UUUGAUUAAUAUGAUAUCGUUCUUUCUUGUAGUCCGUUCUUUCUCGAUAUCAUAUUAAUCUUU | 732
Ic_S2_P4E.1_K4.1_C4.1_H4.1_A4.1_[T5G]_[A6C]_[T7C]_F4.1_[T8C]_T4.1 (ssRNA) RNA: UUUGAUUAAUAUGAUAUCGUUCUUUCUUGUAGCCCAUUCUUUCUCGAUAUCAUAUUAAUCUUU | 1090
Ic_S2_P4E.1_K4.1_C4.1_H4.1_A4.1_[T5G]_[A6T]_[T7C]_F4.1_[T8G]_[A9T]_T4.1 (ssRNA) RNA: UUUGAUUAAUAUGAUAUCGUUCUUUCUUGUAGUCGUUUCUUUCUCGAUAUCAUAUUAAUCUUU | 288
UCUCUUUAUAUUUAUCUCUU (ssRNA) [Ib_S1_P3E.1_K3.1_C3.1_H3.1_[G2A]_A3.1_[A6T]_F3.1_T3.1] | > 2300
UCUCUUUGUUCAUAUCUCUU (ssRNA) [Ib_S1_P3E.1_K3.1_C3.1_H3.1_[A4T]_A3.1_[T5C]_F3.1_T3.1] | 682
UCUCUUUGCAUGUAUCUCUU (ssRNA) [Ib_S1_P3E.1_K3.1_C3.1_H3.1_[T3C]_A3.1_[A6G]_F3.1_T3.1] | 535
UCUCUUUGCAAAUAUCUCUU (ssRNA) [Ib_S1_P3E.1_K3.1_C3.1_H3.1_[T3C]_A3.1_[T5A]_F3.1_T3.1] | > 2300
Ic_S2_P3E.1_K3.1_C3.1_H3.1_A3.1_[A6T]_F3.1_[T7C]_[A8C]_T3.1 (ssRNA) RNA: UUUGAUUAAUAUGAUAUCGUUCUUUCUUGUAUUCCUUCUUUCUCGAUAUCAUAUUAAUCUUU | 76
Ic_S2_P3E.1_K3.1_C3.1_H3.1_A3.1_F3.1_T3.1 (ssRNA) RNA: UUUGAUUAAUAUGAUAUCGUUCUUUCUUGUAUAUAUUCUUUCUCGAUAUCAUAUUAAUCUUU | 1.38
Ic_S2_P3E.1_K3.1_C3.1_H3.1_A3.1_[A6T]_F3.1_[T7C]_[A8T]_T3.1 (ssRNA) RNA: UUUGAUUAAUAUGAUAUCGUUCUUUCUUGUAUUCUUUCUUUCUCGAUAUCAUAUUAAUCUUU | 11.9
